In patent US20160206715A1:

Molecular target: T1, rMuIL15Ra (murine IL-15 receptor R&D Systems) (murine), Q60819
T1 chain: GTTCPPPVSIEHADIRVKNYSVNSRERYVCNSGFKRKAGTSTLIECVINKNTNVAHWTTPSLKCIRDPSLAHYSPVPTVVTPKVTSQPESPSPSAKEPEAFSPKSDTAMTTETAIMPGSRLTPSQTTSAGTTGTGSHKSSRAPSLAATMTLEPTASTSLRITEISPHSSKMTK
Test: BLI (ForteBio), biotinylated rMuIL15Ra on SA biosensors, rMuIL15 in solution, 1:1 fit
Settings: remark: other sources report otherwise

Kd: 5.57 nM
B1: rMuIL15 (R&D Systems), P48346 49-162 (ligand, murine, UniProt P48346 49-162, looked up)
chain: NWIDVRYDLEKIESLIQSIHIDTTLYTDSDFHPSCKVTAMNCFLLELQVILHEYSNMTLNETVRNVLYLANSTLSSNKNVAESGCKECEELEEKTFTEFLQSFIRIVQMFINTS
modifications: here or on the partner: biotinylated with EZ-Link NHS-LC-Biotin (sites not given)
